Assays:
[1] = target: T1, human topoisomerase II alpha (Homo sapiens, UniProt P11388); experiment: relaxation of supercoiled plasmids, topoisomerase II activity assay; format: biochemical; details: peptide concentration of 0.5 μM
From the text: (§1) Two enzymatic assays make it possible to estimate the effect of the pentides on topoisomerase II activity: relaxation of supercoiled plasmids and decatenation of kinetoplast DNA (Wang, J. C., An. Rev. Biochem., 54: 665-697, 1985; Maxwell, A., Advances in Protein Chemistry, 38: 69-107, 1986; Liu, L. F., Cell, 19: 697-707, 1980).

[2] = target: T2, topoisomerase II of yeast (Saccharomyces cerevisiae, UniProt P06786); experiment: as above; format: biochemical; details: peptide concentration of 0.5 μM
T2 sequence (P06786 1-1428): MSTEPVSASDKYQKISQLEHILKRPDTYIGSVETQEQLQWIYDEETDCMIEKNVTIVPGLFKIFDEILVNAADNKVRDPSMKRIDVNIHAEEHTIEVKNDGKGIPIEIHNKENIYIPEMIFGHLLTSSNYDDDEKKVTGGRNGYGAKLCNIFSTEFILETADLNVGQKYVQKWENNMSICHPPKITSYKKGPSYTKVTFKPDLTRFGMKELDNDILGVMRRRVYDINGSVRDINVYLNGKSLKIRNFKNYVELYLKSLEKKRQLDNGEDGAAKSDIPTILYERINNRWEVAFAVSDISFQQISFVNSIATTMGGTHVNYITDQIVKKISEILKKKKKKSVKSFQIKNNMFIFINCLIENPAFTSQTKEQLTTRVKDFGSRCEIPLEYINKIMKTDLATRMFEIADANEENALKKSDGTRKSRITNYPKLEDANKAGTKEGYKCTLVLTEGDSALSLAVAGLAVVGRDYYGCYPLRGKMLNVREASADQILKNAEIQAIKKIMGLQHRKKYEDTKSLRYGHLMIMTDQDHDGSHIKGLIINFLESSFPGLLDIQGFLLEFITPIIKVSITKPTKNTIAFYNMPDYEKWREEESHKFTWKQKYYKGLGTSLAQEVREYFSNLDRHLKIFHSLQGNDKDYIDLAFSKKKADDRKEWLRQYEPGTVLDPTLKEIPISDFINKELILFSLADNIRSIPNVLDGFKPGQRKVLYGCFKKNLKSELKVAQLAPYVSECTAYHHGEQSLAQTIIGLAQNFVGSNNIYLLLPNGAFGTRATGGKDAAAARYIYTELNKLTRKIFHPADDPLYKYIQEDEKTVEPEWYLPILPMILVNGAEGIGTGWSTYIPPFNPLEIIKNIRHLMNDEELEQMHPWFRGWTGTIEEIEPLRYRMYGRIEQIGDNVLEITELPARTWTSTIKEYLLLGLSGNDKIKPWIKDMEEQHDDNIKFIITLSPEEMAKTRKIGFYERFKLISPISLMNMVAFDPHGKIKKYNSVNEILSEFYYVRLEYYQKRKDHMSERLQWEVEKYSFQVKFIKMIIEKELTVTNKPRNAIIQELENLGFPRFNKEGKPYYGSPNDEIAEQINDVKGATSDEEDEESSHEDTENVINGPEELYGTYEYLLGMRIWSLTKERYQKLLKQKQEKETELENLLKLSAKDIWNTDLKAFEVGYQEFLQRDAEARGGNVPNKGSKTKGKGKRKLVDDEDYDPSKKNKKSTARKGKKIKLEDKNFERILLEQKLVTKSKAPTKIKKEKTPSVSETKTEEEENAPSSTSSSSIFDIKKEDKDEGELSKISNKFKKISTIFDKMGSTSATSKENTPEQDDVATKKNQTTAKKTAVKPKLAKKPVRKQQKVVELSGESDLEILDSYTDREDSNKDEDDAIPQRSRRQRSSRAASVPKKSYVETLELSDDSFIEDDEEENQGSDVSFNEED
From the text: as §1

[3] = target: T1, human topoisomerase II alpha; experiment: decatenation of kinetoplast DNA, topoisomerase II activity assay; format: biochemical; details: peptide concentration of 0.5 μM
From the text: as §1

[4] = target: T2, topoisomerase II of yeast; experiment: as above; format: biochemical; details: peptide concentration of 0.5 μM
From the text: as §1

topoisomerase II = details: prior art, literature; cited from earlier work

T1 sequence (P11388 whole entry): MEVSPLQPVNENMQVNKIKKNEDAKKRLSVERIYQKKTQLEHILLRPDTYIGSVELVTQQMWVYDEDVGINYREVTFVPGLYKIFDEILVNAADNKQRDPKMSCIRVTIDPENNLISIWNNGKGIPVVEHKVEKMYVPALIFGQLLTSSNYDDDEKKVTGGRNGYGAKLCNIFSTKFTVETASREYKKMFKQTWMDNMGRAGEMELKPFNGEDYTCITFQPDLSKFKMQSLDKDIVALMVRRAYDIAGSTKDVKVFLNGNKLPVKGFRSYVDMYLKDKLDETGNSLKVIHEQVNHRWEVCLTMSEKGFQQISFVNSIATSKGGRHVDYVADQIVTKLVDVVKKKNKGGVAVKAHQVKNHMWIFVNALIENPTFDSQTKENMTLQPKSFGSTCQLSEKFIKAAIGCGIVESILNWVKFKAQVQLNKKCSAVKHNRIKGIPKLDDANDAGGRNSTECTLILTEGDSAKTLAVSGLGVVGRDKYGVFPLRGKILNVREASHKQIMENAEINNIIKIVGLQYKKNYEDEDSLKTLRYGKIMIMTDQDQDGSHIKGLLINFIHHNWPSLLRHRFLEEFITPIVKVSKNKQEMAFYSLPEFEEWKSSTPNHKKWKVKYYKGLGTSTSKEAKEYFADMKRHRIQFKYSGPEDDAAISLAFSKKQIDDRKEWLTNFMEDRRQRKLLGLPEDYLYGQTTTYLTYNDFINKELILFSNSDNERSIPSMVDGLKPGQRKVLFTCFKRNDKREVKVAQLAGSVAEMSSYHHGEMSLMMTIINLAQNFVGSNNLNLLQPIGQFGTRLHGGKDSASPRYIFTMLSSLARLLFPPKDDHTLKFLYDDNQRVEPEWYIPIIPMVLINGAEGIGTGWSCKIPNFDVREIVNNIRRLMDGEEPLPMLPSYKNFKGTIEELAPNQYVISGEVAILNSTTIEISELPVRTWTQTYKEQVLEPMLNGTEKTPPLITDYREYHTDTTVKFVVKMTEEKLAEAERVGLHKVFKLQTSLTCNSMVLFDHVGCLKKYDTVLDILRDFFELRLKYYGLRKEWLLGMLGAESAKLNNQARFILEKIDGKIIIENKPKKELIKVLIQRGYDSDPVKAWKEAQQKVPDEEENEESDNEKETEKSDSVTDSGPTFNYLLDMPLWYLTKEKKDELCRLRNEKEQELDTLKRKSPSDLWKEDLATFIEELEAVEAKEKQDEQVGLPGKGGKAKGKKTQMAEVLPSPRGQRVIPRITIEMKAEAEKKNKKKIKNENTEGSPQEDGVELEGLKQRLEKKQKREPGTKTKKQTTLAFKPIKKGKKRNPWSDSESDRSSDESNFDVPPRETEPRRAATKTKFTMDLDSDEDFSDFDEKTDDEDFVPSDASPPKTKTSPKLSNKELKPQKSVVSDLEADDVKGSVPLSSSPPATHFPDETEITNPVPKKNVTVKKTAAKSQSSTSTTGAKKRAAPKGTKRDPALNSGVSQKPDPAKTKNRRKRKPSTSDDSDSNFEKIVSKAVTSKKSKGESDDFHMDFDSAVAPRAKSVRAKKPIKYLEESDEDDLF

Substance	inhibition of topoisomerase II activity (relaxation of supercoiled plasmids) [1]	inhibition of topoisomerase II activity (relaxation of supercoiled plasmids) [2]	inhibition of topoisomerase II activity (decatenation of kinetoplast DNA) [3]	inhibition of topoisomerase II activity (decatenation of kinetoplast DNA) [4]	inhibitory activity for topoisomerase II (topoisomerase II)
Thr-Gin-Leu-Asp-Ile-Leu-Arg-Asp-Leu-Phe-Glu-Leu-Arg -Leu-Lys-Tyr-Tyr-Gly-Leu-Arg-Lys-Glu-Phe-Leu-Leu-Gin-Met -Leu-Gly (TQLDILRDLFELRLKYYGLRKEFLLQMLG) [example 1]	totally inhibits	totally inhibits	totally inhibits	totally inhibits	
sequence 1013 to 1041 of human topoisomerase II alpha: topoisomerase II fragment, corresponding to sequence 1013 to 1041 of human topoisomerase II alpha, described by Frére Gallois et al.					inhibitory activity
